T1: Human CD32a(H) (human, UniProt P12318 36-218, limits assumed)
T1 sequence (looked up): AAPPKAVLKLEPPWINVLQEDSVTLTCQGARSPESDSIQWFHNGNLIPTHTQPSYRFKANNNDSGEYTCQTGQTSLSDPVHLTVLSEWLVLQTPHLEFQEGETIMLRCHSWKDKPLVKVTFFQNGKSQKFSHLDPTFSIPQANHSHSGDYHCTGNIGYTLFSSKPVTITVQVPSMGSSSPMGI

T2: Human CD32b (human, UniProt P31994 46-217, limits assumed)
T2 sequence (looked up): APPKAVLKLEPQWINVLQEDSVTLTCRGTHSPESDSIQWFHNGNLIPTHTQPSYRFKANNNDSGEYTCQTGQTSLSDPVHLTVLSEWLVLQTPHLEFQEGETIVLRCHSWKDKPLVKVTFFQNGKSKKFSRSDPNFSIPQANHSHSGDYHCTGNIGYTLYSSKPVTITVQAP

T3: Cynomolgus CD3E (Acro, CDE-C5226) (cynomolgus, UniProt Q95LI5 22-117, biotinylated (mixed with biotin 1:3))
T3 sequence (looked up): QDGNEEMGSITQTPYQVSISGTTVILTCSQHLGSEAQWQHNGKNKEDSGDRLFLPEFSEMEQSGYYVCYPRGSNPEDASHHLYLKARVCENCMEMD


Assays:
human CLDN18.2 [1] = target: T4, human CLDN18.2 (human); assay: FACS on NUGC4_D8 cells
T4 construct: the HEK293 line was made with a GenScript plasmid; also called hCLDN18.2

human CLDN18.2 [2] = target: T4, human CLDN18.2; assay: cell-based or functional assay
[3] = target: CLDN18.2 of SNU620 cells (methionine to leucine at amino acid 149) (human, UniProt P56856-2 1-261); assay: cell-based or functional assay
human CLDN18.2 [4] = target: T4, human CLDN18.2; assay: FACS on HEK293/hCLDN18.2 cells
Protocol: (§1) Antibodies were assayed for binding affinity by FACS. Test cells include HEK293/hCLDN18.2, HEK293/hCLDN18.1, NUGC4_D8 and Jurkat cells. […] The cell density was adjusted to 10⁶ cells/mL, and 50 μL of the cell suspension was added to each well of a 96-well plate. Antibodies were diluted to different concentrations with FACS buffer, and 50 μL of the antibody dilution was added to each well of the 96-well plate. After 2 h of incubation at 4° C., the plate was washed twice with FACS buffer. […] After 1 h of incubation at 4° C., the plate was washed twice with FACS buffer. The cells were resuspended in fixative solution, and then the fluorescence of the cells was monitored using an FACS instrument (ACEA NovoCyte).

[5] = target: T5, human CD3 on Jurkat cells (human, UniProt P07766 23-207); assay: FACS on Jurkat cells (CD3)
T5 construct: whole, on cells; on cells it stands in the whole CD3/TCR complex; also called CD3-expressing cells
Protocol: as §1

Human CD16a(F) = Human CD16a(F) (human, UniProt P08637 17-208); assay: BLI (Octet), antibody on FAB2G sensor
Protocol: (§2) The binding kinetics between proteins and antibodies was analyzed by the Biolayer Interferometry (BLI) technique using an Octet Red 96e (Fortebio) system. The rotation speed was set at 1000 rpm for the system. […] After equilibrated in the buffer for 120 s, the FAB2G sensor was allowed to bind to 2-fold serially diluted human Fc receptor protein. Finally, the FAB2G sensor was immersed in a 10 mM glycine-hydrochloric acid solution at pH 1.5 for regeneration to elute the proteins bound to the sensor. The affinity assays of antibodies for FcRn were performed under the conditions of both pH 6.0 buffer and pH 7.4 buffer. […] For the interactions of fast binding and fast dissociation, the “steady state” method was selected to fit the data to obtain KD(M) values.

Human CD32a(H) = target: T1, Human CD32a(H); assay: BLI (Octet), antibody on FAB2G sensor
Protocol: as §2

Human CD32b = target: T2, Human CD32b; assay: BLI (Octet), antibody on FAB2G sensor
Protocol: as §2

Human CD64 [6] = target: T6, Human CD64 (human, UniProt P12314 16-288, limits assumed); assay: BLI (Octet), antibody on FAB2G sensor, 1:1 global fit
T6 construct: bought recombinant protein
Protocol: as §2

Human CD16a(V) [7] = target: T7, Human CD16a(V) (human, UniProt P08637 17-208); assay: BLI (Octet), antibody on FAB2G sensor, steady state fit
Protocol: as §2

Human FcRn = Human FcRn (human, UniProt P55899 24-297; P61769 21-119); assay: BLI (Octet), antibody on FAB2G sensor, pH 6.0, 1:1 global fit; pH 6.0; 400-25 nM
Protocol: as §2

human CLDN18.2 [8] = target: T4, human CLDN18.2; assay: competition FACS on HEK293/hCLDN18.2 cells; competitor 10 nM biotinylated PR000400
Protocol: (§3) This example is to study the binding of anti-human CLDN18.2 bispecific antibodies to the epitope region of a human CLDN18.2 antigen. Competitive binding experiments were performed at the cellular level using human CLDN18.2-overexpressing HEK293/hCLDN18.2 cells. […] The mixture was well mixed and incubated at 4° C. for 30 min. 25 μL of the corresponding serially diluted non-biotinylated anti-human CLDN18.2 antibody was added. The mixture was well mixed and incubated at 4° C. for 1 h. The cells in each well were washed twice with 200 μL of pre-cooled FACS buffer (2% BSA in DPBS) and centrifuged at 500 g at 4° C. for 5 min, and then the supernatant was discarded. A fluorescent secondary antibody (Jackson ImmunoResearch, 016-540-084, 1:500) was added. The mixture was incubated at 4° C. in the absence of light for 1 h. The cells in each well were washed twice with 200 μL of pre-cooled FACS buffer (2% BSA in DPBS) and centrifuged at 500 g at 4° C. for 5 min, and then the supernatant was discarded. Finally, the cells in each well were resuspended in 200 μL of pre-cooled FACS buffer, and the fluorescence signal values were read using a ACEA_NovoCyte.

human CLDN18.2 [9] = target: T4, human CLDN18.2; assay: competition FACS on HEK293/hCLDN18.2 cells; competitor 200 nM biotinylated PR004549
Protocol: as §3

[10] = target: T5, human CD3 on Jurkat cells; assay: FACS on Jurkat cells
Protocol: as §1

Human CD64 [11] = target: T6, Human CD64; assay: BLI (Octet), antibody on FAB2G sensor
Protocol: as §2

Human CD16a(V) [12] = target: T7, Human CD16a(V); assay: BLI (Octet), antibody on FAB2G sensor
Protocol: as §2

[13] = target: T8, Human CD3E (Acro, CDE-H5223) (human, UniProt P07766 23-126, biotinylated (mixed with biotin 1:3)); assay: BLI (Octet), biotinylated CD3 on SA sensor, 1:1 global fit;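 further: antibodies applied as analyte in 2-fold serial dilutions, with a 180 s association phase followed by a 300 s dissociation phase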
T8 construct: also called Human CD3Ec

[14] = target: T3, Cynomolgus CD3E (Acro, CDE-C5226); assay: as above

T8 sequence (P07766 23-126 limits assumed): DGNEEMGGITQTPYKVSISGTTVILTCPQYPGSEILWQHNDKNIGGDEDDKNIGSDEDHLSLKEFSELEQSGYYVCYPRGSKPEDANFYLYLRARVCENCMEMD
T6 sequence (P12314 16-288 limits assumed): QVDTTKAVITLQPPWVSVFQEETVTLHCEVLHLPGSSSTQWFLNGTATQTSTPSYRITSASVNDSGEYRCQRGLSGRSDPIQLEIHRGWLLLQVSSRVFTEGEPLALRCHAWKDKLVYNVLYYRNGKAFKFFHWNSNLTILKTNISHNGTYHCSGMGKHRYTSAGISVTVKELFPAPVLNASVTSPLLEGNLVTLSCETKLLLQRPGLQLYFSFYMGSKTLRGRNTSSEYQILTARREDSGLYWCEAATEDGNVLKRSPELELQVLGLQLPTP
T5 sequence (P07766 23-207): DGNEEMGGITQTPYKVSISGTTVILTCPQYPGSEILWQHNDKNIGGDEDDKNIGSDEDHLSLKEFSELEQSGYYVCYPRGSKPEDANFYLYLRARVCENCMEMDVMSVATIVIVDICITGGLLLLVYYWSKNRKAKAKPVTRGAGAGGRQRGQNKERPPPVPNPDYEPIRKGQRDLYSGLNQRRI
T7 sequence (P08637 17-208 F176V limits assumed): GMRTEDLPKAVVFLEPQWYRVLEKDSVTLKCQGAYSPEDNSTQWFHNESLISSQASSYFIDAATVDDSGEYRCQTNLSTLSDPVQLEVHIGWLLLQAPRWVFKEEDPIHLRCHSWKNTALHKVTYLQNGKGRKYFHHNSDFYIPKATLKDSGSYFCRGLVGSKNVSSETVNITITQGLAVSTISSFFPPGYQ
Human CD16a(F), sequence (P08637 17-208 limits assumed): as the sequence (P08637 17-208 F176V limits assumed) above, with V160F counted along it
CLDN18.2 of SNU620 cells (methionine to leucine at amino acid 149), sequence (P56856 other isoform, or with tags, fused parts or gaps limits assumed): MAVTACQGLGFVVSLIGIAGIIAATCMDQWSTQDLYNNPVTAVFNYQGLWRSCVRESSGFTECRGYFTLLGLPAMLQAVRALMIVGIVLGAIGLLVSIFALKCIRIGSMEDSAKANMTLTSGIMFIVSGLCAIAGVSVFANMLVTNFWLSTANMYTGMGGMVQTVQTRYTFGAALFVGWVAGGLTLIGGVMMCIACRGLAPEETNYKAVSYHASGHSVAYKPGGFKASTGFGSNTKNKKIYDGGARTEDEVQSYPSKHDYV

EC50 (human CLDN18.2 [1]) [µM] | TDCC, Titer EC50 (pM), NUGC4_D8 (human CLDN18.2 [2]) [pM] | TDCC, Titer EC50 (pM), SNU620 [3] [pM] | binding result (Human CD16a(F)) | binding result (Human CD32a(H)) | binding result (Human CD32b) | Kd (Human FcRn) [µM] | koff (Human FcRn) [s⁻¹] | kon (Human FcRn) [M⁻¹ s⁻¹] | IC50 (human CLDN18.2 [8]) [µM] | Maximum inhibition rate (%) (human CLDN18.2 [8]) | IC50 (human CLDN18.2 [9]) [µM] | Maximum inhibition rate (%) (human CLDN18.2 [9]) | Binder | other results
0.0275 | 10 | 31.6 | no binding (tested: 10000-625 nM) | no binding (tested: 10000-625 nM) | no binding (tested: 10000-625 nM) | 0.182 | 0.0586 | 322000 | 0.0818 | 98.4 | 0.0675 | 48 | PR005397 (bispecific antibody, human IgG1, lambda, L234A L235A, structure 1; CD3 Fab from PR003886, CLDN18.2 VH from PR007246; LALA) EVQLVESGGGLVQPGGSLRLSCAASGFTFSSYWMHWVRQVPGKGLVWVSRISSTGSRTIYADSVKGRFTISRDNAKNTLYLQMNSLRAEDTAVYYCARGEDHDILTGYPIRGQGTTVTVSSGGGGSGGGGSGGGGSEVQLVESGGGLVQPGGSLRLSCAASGFTFSSYWMHWVRQVPGKGLVWVSRISSTGSRTIYADSVKGRFTISRDNAKNTLYLQMNSLRAEDTAVYYCARGEDHDILTGYPIRGQGTTVTVSSASEPKSSDKTHTCPPCPAPEAAGGPSVFLFPPKPKDTLMISRTPEVTCVVVDVSHEDPEVKFNWYVDGVEVHNAKTKPREEQYNSTYRVVSVLTVLHQDWLNGKEYKCKVSNKALPAPIEKTISKAKGQPREPQVCTLPPSREEMTKNQVSLSCAVKGFYPSDIAVEWESNGQPENNYKTTPPVLDSDGSFFLVSKLTVDKSRWQQGNVFSCSVMHEALHNHYTQKSLSLSPGK heavy: not shown light: QAVVTQEPSLTVSPGGTVTLTCRSSTGAVTTSNYANWVQQKPGQAPRGLIGGTNKRAPWTPARFSGSLLGDKAALTLLGAQPEDEAEYFCALWYSNLWVFGGGTKLTVLGQPKAAPSVTLFPPSSEELQANKATLVCLISDFYPGAVTVAWKADSSPVKAGVETTTPSKQSNNKYAASSYLSLTPEQWKSHRSYSCQVTHEGSTVEKTVAPTECS | EC50 (human CLDN18.2 [4]): 0.0128 µM; binding result [5]: binds; Kd (Human CD64 [6]): 0.0506 µM; koff (Human CD64 [6]): 0.0438 s⁻¹; kon (Human CD64 [6]): 866000 M⁻¹ s⁻¹; Kd (Human CD16a(V) [7]): 1.8 µM
0.078 | 87 | 18.5 | no binding (tested: 10000-625 nM) | no binding (tested: 10000-625 nM) | no binding (tested: 10000-625 nM) | 0.217 | 0.0632 | 291000 | 0.132 | 97.8 | 0.1 | 48 | PR006293 (bispecific antibody, human IgG1, lambda, structure 1; CD3 Fab from PR001848, CLDN18.2 VH from PR007245; AAA) EVQLVESGGGLVQPGGSLRLSCAASGFTFSSYWMHWVRQVPGKGLVWVSRISSDASRTIYADSVKGRFTISRDNAKNTLYLQMNSLRAEDTAVYYCARGEDHDILTGYPIRGQGTTVTVSSGGGGSGGGGSGGGGSEVQLVESGGGLVQPGGSLRLSCAASGFTFSSYWMHWVRQVPGKGLVWVSRISSDASRTIYADSVKGRFTISRDNAKNTLYLQMNSLRAEDTAVYYCARGEDHDILTGYPIRGQGTTVTVSSASEPKSSDKTHTCPPCPAPEAAGAPSVFLFPPKPKDTLMISRTPEVTCVVVDVSHEDPEVKFNWYVDGVEVHNAKTKPREEQYNSTYRVVSVLTVLHQDWLNGKEYKCKVSNKALPAPIEKTISKAKGQPREPQVCTLPPSREEMTKNQVSLSCAVKGFYPSDIAVEWESNGQPENNYKTTPPVLDSDGSFFLVSKLTVDKSRWQQGNVFSCSVMHEALHNHYTQKSLSLSPGK heavy: EVQLLESGGGLVQPGGSLRLSCAASGFTFSTYAMNWVRQAPGKGLEWVSRIRSKYNNYATYYADSVKDRFTISRDDSKSTLYLQMNSLRAEDTAVYYCVRHGNFGNSYVSWFAYWGQGTLVTVSSASTKGPSVFPLAPSSKSTSGGTAALGCLVKDYFPEPVTVSWNSGALTSGVHTFPAVLQSSGLYSLSSVVTVPSSSLGTQTYICNVNHKPSNTKVDKKVEPKSCDKTHTCPPCPAPEAAGAPSVFLFPPKPKDTLMISRTPEVTCVVVDVSHEDPEVKFNWYVDGVEVHNAKTKPREEQYNSTYRVVSVLTVLHQDWLNGKEYKCKVSNKALPAPIEKTISKAKGQPREPQVYTLPPCREEMTKNQVSLWCLVKGFYPSDIAVEWESNGQPENNYKTTPPVLDSDGSFFLYSKLTVDKSRWQQGNVFSCSVMHEALHNHYTQKSLSLSPGK light: QAVVTQEPSLTVSPGGTVTLTCRSSTGAVTTSNYANWVQQKPGQAPRGLIGGTNKRAPWTPARFSGSLLGDKAALTLLGAQPEDEAEYFCALWYSNLWVFGGGTKLTVLGQPKAAPSVTLFPPSSEELQANKATLVCLISDFYPGAVTVAWKADSSPVKAGVETTTPSKQSNNKYAASSYLSLTPEQWKSHRSYSCQVTHEGSTVEKTVAPTECS | EC50 [10]: 0.065 µM; TDCC, Titer EC50 (pM), IM95 (human CLDN18.2 [2]): 460 pM; binding result (Human CD64 [11]): no binding (tested: 800-50 nM); binding result (Human CD16a(V) [12]): no binding (tested: 6000-375 nM); Kd [13]: 0.0317 µM; koff [13]: 0.00216 s⁻¹; kon [13]: 68100 M⁻¹ s⁻¹; Kd [14]: 0.0324 µM; koff [14]: 0.00197 s⁻¹; kon [14]: 60700 M⁻¹ s⁻¹
